# In patent US20220168331A1, “PRR-Activating and MicroRNA-Inhibiting Molecules and Methods of Using Same” (Duke University, priority 2019, published 2022):
# “Also recorded” adds a separate entry of the source.
# Columns and labels:
# [1] = tested on: B16-F10 melanoma cell line; assay: PRR tolerance: IFN-β production by pretreated B16-F10 cells after secondary treatment; assay type: cell-based, mouse; details: pretreatment at sublethal dose overnight, then pIC/DF complex 0.6 μg/ml; FIG. 8
# Experimental: (§1) In addition to prior activation of MDA5, prior activation of TLR4, RIG-I, and STING induced self- and cross-tolerance of same and different PRRs.
# (§2) In particular, mouse pancreatic cancer cell line PANC-02 and melanoma cell line B16-F10 were pretreated with dH2O, MDA5 agonist (pIC/DF complex), or TLR4 agonist (HMGB1) in the presence of dimethyl sulfoxide (DMSO) (vehicle control), CH223191 (AHR inhibitor), 1-MT (IDO inhibitor), or L-Kyn (AHR activator). After overnight incubation, the cells were replenished with fresh culture media and treated with pIC/DF complex (0.6 μg/ml). One day after second treatment, IFN-β production was measured using ELISA. (n=3).
# [2] = tested on: B16-F10 melanoma-bearing mice; assay: Anticancer response (survival) after single or multiple intratumoral pIC/jet-PEI injections; assay type: in vivo, mouse; details: pIC/jet-PEI complex 25 μg intratumorally once or thrice
# [3] = tested on: PANC-02 mouse pancreatic cancer cell line; assay: PRR tolerance: IFN-β production by pretreated PANC-02 cells after secondary treatment; assay type: cell-based; details: pretreatment at sublethal dose overnight, then pIC/DF complex 0.6 μg/ml; FIG. 8
# Experimental: as §1, §2
# Mouse BM-DCs = assay: PRR tolerance: IFN-β production by pretreated BM-DCs after secondary treatment; assay type: cell-based; details: pretreatment overnight, then cytoplasmic PRR agonists; FIG. 9A
# Experimental: as §1
# Mouse BM-DCs were treated with pIC/DF complex (cytoplasmic MDA5), ICR4/DF complex (cytoplasmic RIG-I), 2′3′-cGAMP (cytoplasmic STING), or transfection agent DF alone (FIG. 9A). Mouse macrophage cells were treated with dH2O (control), LPS (surface TLR4), or HMGB1 (surface TLR4), followed by treatment with DMSO (control) or mixture of CH223191 (AHR inhibitor) and 1-MT (IDO inhibitor) (FIG. 9B). After overnight incubation, the cells were replenished with fresh culture media and treated with indicated cytoplasmic PRR agonists. Levels of IFN-β production were measured using ELISA. □ P<0.05.
# [4] = tested on: bone marrow-derived dendritic cells (BM-DCs); assay: IFN-β production (ELISA) by BM-DCs after single or repeated pIC/jet-PEI transfection; assay type: cell-based, mouse; details: pIC 0.6 μg/ml with jet-PEI, transfected once or twice, one day after each transfection
# Experimental: (§3) B16-F0 mouse melanoma cells or bone marrow-derived dendritic cells (BM-DCs) were transfected once (x1) or twice (x2) with a complex of polyI:C (pIC) (0.6 μg/ml) and transfection agent jet-PEI. IFN-β production by the cells one day after each transfection was determined using ELISA.
# [5] = tested on: B16-F0 mouse melanoma cells; assay: IFN-β production (ELISA) by B16-F0 cells; assay type: cell-based; details: for IFN-β production after first and second transfection: 12.5 nM, DharmaFECT, one day after first and second transfection, ELISA
# Experimental: (§4) B16-F0 and B16-F10 mouse melanoma cells lines are originated from the same parental cell line but they have different metastatic ability. B16-F0 cell line has no or marginal metastatic ability but B16-F10 cell line has potent metastatic ability. B16-F0 and B16-F10 cells (1×10^4) were treated with RIG-I agonist ICR4-liposome complex (0.6 μg/ml). After overnight incubation, cytotoxicity and IFN-β production by the cells were measured using MTT assay and ELISA, respectively. […] Tumor suppressor proteins, such as programmed cell death 4 (PDCD4) and phosphatase and tensin homolog (PTEN), and pre-miR-21 levels in B16-F0 and B16-F10 cells were measured using real-time qPCR. […] It was hypothisized that miR-21 would interfere with antitumor effects of RIG-I agonists in B16-F10 melanoma cells.
# B16-F0 mouse melanoma cells were transfected with ICR4, RigantmiR-21, mutant RigantmiR-21, or anti-miR-21 at 12.5 nM using DharmaFECT (DF). After overnight incubation, the cells were replenished with fresh culture media, followed by another transfection with the same dose of RNAs. One day after the first and second transfection, IFN-β production by these cells were determined using ELSIA.
# as §3
# [6] = tested on: KPC-4839 (mouse pancreatic ductal adenocarcinoma); assay: IFN-β production and cell death in KPC-4839 cells; assay type: cell-based; details: 0.6 μg/ml, DharmaFECT
# Experimental: (§5) The antitumor effects of RigantmiR-21 are not limited to melanoma cells. KPC-4839 (mouse pancreatic ductal adenocarcinoma), PANC-02 (mouse pancreatic adenocarcinoma) and mouse sarcoma cell line cells were transfected with indicated ICR4, RigantmiR-21, mutant RigantmiR-21, or anti-miR-21 (0.6 μg/ml) using DharmaFECT (DF). After overnight incubation, IFN-β production by these cells was determined using ELSIA. (n=3). As shown in FIGS. 4A-4C, RigantmiR-21 treatments induced cell death and IFN-β production by mouse pancreatic, adenocarcinoma, and sarcoma cells that are also resistant to RIG-I agonist ICR4.
# [7] = tested on: mouse sarcoma cell line cells; assay: IFN-β production and cell death in mouse sarcoma cell line; assay type: cell-based; details: 0.6 μg/ml, DharmaFECT
# Experimental: as §5
# [8] = tested on: B16-F10 mouse melanoma cells; assay: IFN-β production (ELISA) by B16-F10 cells; assay type: cell-based; details: transfected once or twice, 0.6 μg/ml, DharmaFECT, ELISA
# Experimental: as §4
# (§6) To improve therapeutic effects of RIG-I agonists in B16-F10 cells, we designed and generated a novel RIG-I-activating RNA molecule (named RigantmiR-21) that is composed of a RIG-I-activating RNA structure (ICR4: 5′ppp-containg double stem-loop RNA) and a complementary sequence to mature miR-21. B16-F10 melanoma cells were transfected once or twice with RigantmiR-21, mutant RigantmiR-21, anti-miR-21, or ICR4 (0.6 μg/ml) using liposomal transfection agent DharmaFECT (DF). The expression of miR-21 target genes was determined using qPCR. IFN-β production was determined using ELISA. […] Anti-miR-21, ICR4, and RigantmiR-21 RNAs were complexed with in vivo transfection agent jet-PEI. Jet-PEI alone or RNA-jet-PEI complexes (25 μg) were injected thrice intratumorally into B16-F10 melanoma-bearing immunocompetent mice. (n=6).
# Additionally, conjugation of anti-miR-21 improved the ability of other types of RIG-I agonists, such as ICR2 and ICR2AS^4 (sequences shown in FIG. 6A) to induce IFN-β production by cancer cells.
# [9] = tested on: B16-F0 mouse melanoma cells; assay: Cytotoxicity (MTT assay) in B16-F0 cells; assay type: cell-based; details: two transfections at various concentrations, DharmaFECT, MTT three days after first transfection
# Experimental: as §4
# B16-F0 mouse melanoma cells were transfected with ICR4, RigantmiR-21, mutant RigantmiR-21, or anti-miR-21 at various concentrations using DharmaFECT (DF). After overnight incubation, the cells were replenished with fresh culture media, followed by another transfection with the same dose of RNAs. Three days after the first transfection, cytotoxicity levels were measured using MTT assay.
# 402230 sarcoma = assay: Survival of 402230 sarcoma-bearing immunocompetent mice; assay type: in vivo, mouse; details: RigantmiR-21 1 mg/kg with jetPEI intratumorally once daily for three days, anti-PD-1 intraperitoneally twice at 7-day interval
# Experimental: Murine sarcoma 402230 cell line was treated single with RigantmiR-21 ([…]) in complex with liposome. IFN-β production 24 h after treatment (FIG. 12A) and cytotoxicity 72 h after treatment (FIG. 12B) were measured using ELISA and MTT assay, respectively. N=3. 402230 sarcoma-bearing immunocompetent mice were injected intratumorally once daily for three days with RigantmiR-21 (1 mg/kg) in complex with in vivo transfection agent jetPEI, N=5. (FIG. 12C). Sarcoma-bearing mice were also injected intraperitoneally twice at 7-day interval with anti-PD-1. jetPEI alone and jetPEI with isotype control antibody were used as control.
# [10] = tested on: mouse pancreatic, adenocarcinoma, and sarcoma cells; assay: Antitumor activities in mouse pancreatic cancer and sarcoma cells (overall statements); assay type: cell-based
# Experimental: as §5
# miR-21 = assay: Expression of premiR-21 and miR-21 target genes (qPCR) in B16-F10 melanoma cells; assay type: cell-based, mouse; details: 0.6 μg/ml, DharmaFECT
# Experimental: as §6
# B16-F10 melanoma = assay: Survival of B16-F10 melanoma-bearing immunocompetent mice after intratumoral RNA-jet-PEI injections; assay type: in vivo, mouse; details: RNA-jet-PEI complexes 25 μg injected thrice intratumorally
# Experimental: as §6
# Mouse macrophage cells = assay: IFN-β production by macrophages re-treated with PRR agonists with or without 1-MT and CH223191; assay type: cell-based; details: re-treatment with the same agonist in presence of mixture of 1-MT and CH223191; FIG. 10
# Experimental: Mouse macrophage cells were treated with MDA5 agonists (pIC-HMW and pIC-LMW), RIG-I agonists (ICR4 and RigantmiR-21), and STING agonists (2′3′-cGAMP and c-di-GMP). After overnight incubation, the cells were replenished with fresh culture media and treated with the same agonists in the presence or absence of a mixture of 1-MT and CH223191. (n=3).
# [11] = tested on: 4T1 mouse breast cancer cells, B16-F10 mouse melanoma cells, 403688 mouse sarcoma cells, and WM266.4 human melanoma cells; assay: IFN-β production (ELISA) by different cancer cells after first and second transfection with RIG-I agonists; assay type: cell-based; details: DharmaFECT, one day after first and second transfection; FIG. 11
# Experimental: 4T1 mouse breast cancer cells, B16-F10 mouse melanoma cells, 403688 mouse sarcoma cells, and WM266.4 human melanoma cells were transfected with indicated RIG-I agonists using liposomal transfection agent DharmaFECT (DF). After overnight incubation, the cells was replenished with fresh culture media, followed by another transfection with the same RIG-I agonists. One day after first and second transfection IFN-β production by these cells were determined using ELSIA.
# [12] = tested on: PANC-02 (mouse pancreatic adenocarcinoma); assay: IFN-β production and cell death in PANC-02 cells; assay type: cell-based; details: 0.6 μg/ml, DharmaFECT
# Experimental: as §5
molecule,measurement,setting,value
polyinosinic-polycytidylic acid [polyI:C],"IFN-β production after secondary treatment, cells pretreated with the substance versus control",[1],significantly decreased
same,"anticancer responses (survival), multiple treatments compared to single treatment",[2],did not significantly enhance
same,"IFN-β production after secondary treatment, cells pretreated with the substance versus control",[3],significantly decreased
same,"IFN-β production after secondary treatment, cells pretreated with the substance versus control",Mouse BM-DCs,significantly decreased
same,IFN-β production after retreatment,[4],reduced
same,IFN-β production after retreatment,"[5]; pIC 0.6 μg/ml with jet-PEI, transfected once or twice, one day after each transfection",reduced
"RigantmiR-21: nuclease-resistant RNA composed of RIG-I-activating structure ICR4 and a complementary sequence to mature miR-21; SEQ ID NO: 2 (nucleic acid, nuclease-resistant RNA, modifications not given here) GGAUGCGGUACCUGACAGCAUCUUGAAAUAAGGACUGAUGCUCAACAUCAGUCUGAUAAGCUA",cell death,[6],induced
same,IFN-β production,"[6]; overnight, ELISA",induced
same,cell death,[7],induced
same,IFN-β production,"[7]; overnight, ELISA",induced
same,IFN-β production compared to ICR4 and mutant RigantmiR-21,[8],significantly increased
same,cytotoxic effects after repeated treatments,[9],gradually augmented; also recorded: significantly increased
same,"survival, RigantmiR-21 and anti-PD-1 antibody compared to RigantmiR-21 alone",402230 sarcoma,significantly improved survival
same,"survival, RigantmiR-21 and anti-PD-1 antibody compared to RigantmiR-21 alone",402230 sarcoma; listed as RignatmiR-21,synergizes
same,antitumor activities relative to MDA5 agonist polyI:C,[10]; FIGS. 4A-4C,comparable
same,IFN-β production by mouse pancreatic cancer cells and sarcoma,[10]; figure legend FIGS. 4A-4C,improves
same,expression of premiR-21,miR-21,inhibited
same,miR-21 target gene (PTEN) expression,miR-21,upregulated
same,survival compared to repeated injections with ICR4 or anti-miR-21,B16-F10 melanoma,significantly improved the survival
same,IFN-β production with IDO inhibitor and AHR inhibitor co-treatment compared to PRR agonist alone,Mouse macrophage cells,enhanced
same,IFN-β production by different cancer cells,[11],differentially induce
same,cell death,[12],induced
same,IFN-β production,"[12]; overnight, ELISA",induced
same,IFN-β production after first and second transfection,[5],incremental; also recorded: significantly increased
same,IFN-β production after first and second transfection,[5]; listed as RignatmiR-21,gradually increase
